Reference: patent US7521540B2, “CYR61 compositions and methods” (Munin Corporation, priority 1996, dated 2009)

B1: Cyr61: Cysteine-rich ECM signaling protein; murine sequence SEQ ID NO:2, recombinant from Baculovirus-infected Sf9 cells (protein, listed as Mus musculus)
chain: MSSSTFRTLAVAVTLLHLTRLALSTCPAACHCPLEAPKCAPGVGLVRDGCGCCKVCAKQLNEDCSKTQPCDHTKGLECNFGASSTALKGICRAQSEGRPCEYNSRIYQNGESFQPNCKHQCTCIDGAVGCIPLCPQELSLPNLGCPNPRLVKVSGQCCEEWVCDEDSIKDSLDDQDDLLGLDASEVELTRNNELIAIGKGSSLKRLPVFGTEPRVLFNPLHAHGQKCIVQTTSWSQCSKSCGTGISTRVTNDNPECRLVKETRICEVRPCGQPVYSSLKKGKKCSKTKKSPEPVRFTYAGCSSVKKYRPKYCGSCVDGRCCTPLQTRTVKMRFRCEDGEMFSKNVMMIQSCKCNYNCPHPNEASFRLYSLFNDIHKFRD
B2: Fisp12: Cysteine-rich murine protein, SEQ ID NO:6, mouse ortholog of CTGF (protein, listed as Mus musculus)
chain: MLASVAGPISLALVLLALCTRPATGQDCSAQCQCAAEAAPHCPAGVSLVLDGCGCCRVCAKQLGELCTERDPCDPHKGLFCDFGSPANRKIGVCTAKDGAPCVFGGSVYRSGESFQSSCKYQCTCLDGAVGCVPLCSMDVRLPSPDCPFPRRVKLPGKCCKEWVCDEPKDRTAVGPALAAYRLEDTFGPDPTMMRANCLVQTTEWSACSKTCGMGISTRVTNDNTFCRLEKQSRLCMVRPCEADLEENIKKGKKCIRTPKIAKPVKFELSGCTSVKTYRAKFCGVCTDGRCCTPHRTTTLPVEFKCPDGEIMKKNMMFIKTCACHYNCPGDNDIFESLYYRKMYGDMA

What was measured:
[1] = test system: NIH 3T3 fibroblasts; test: Fisp12/Cyr61 cell attachment and spreading, NIH 3T3; format: cell-based, mouse; details: for cell attachment to coated dishes: coating 20 μg/ml, NIH 3T3 fibroblasts
Experimental: Another embodiment of the invention is directed to the use of Cyr61 to mediate cellular attachment to the extracellular matrix. Induction of cellular adhesion was investigated using murine Cyr61, fibronectin, and bovine serum albumin (BSA). Immunological 96-well plates (Falcon brand) were coated with 50 μl of 0.1% BSA in PBS at 4° C. in the presence of 0-30 μg/ml concentrations of murine Cyr61 or fibronectin. After two hours exposure to the coating solution, non-diluted immune or pre-immune antisera (30 μl/well), or affinity-purified anti-Cyr61 antibodies were added. For some wells, the coating mixture was adjusted to 10 mM DTT or 100 mM HCl. After 16 hours incubation, the coating solution was removed and the well surface was blocked with 1% BSA in phosphate-buffered saline (PBS) for 1 hour at room temperature. HUVE cells were plated in Ham's complete F12K medium [GIBCO-BRL, Inc.; Ham, Proc. Natl. Acacd. Sci. (USA) 53:786 (1965)] at 5×10^3-10^4 cells/well. Cycloheximide was added to 100 μg/ml immediately before plating and monensin was added to 1 μM 14 hours before plating. After a 2-hour incubation at 37° C., the wells were washed with PBS and attached cells were fixed and stained with methylene blue. The attachment efficiency was determined by quantitative dye extraction and measurement of the extract absorbance at 650 nm. Oliver et al., J. Cell. Sci. 92:513-518 (1989).
The capacity of Fisp12 to affect cell adhesion was also investigated. Fisp12 cell attachment assays were performed essentially as described (Oliver et al., [1989]). 96-well immunological plates were coated for 16 hours at 4° C. with 20 μg/ml Cyr61, Fisp12 or fibronectim (Gibco BRL) in PBS containing 0.1 mg/ml BSA and blocked with 10 mg/ml BSA for 1 hour at room temperature. HUVE cells were plated at 10^4 cells/well in F12K media with 10% FBS (Hyclone Laboratories, Inc., Logan, Utah); NIH 3T3 fibroblasts were plated at 3×10^4 cells/well and Mv1Lu cells were plated at 5×10^4 cells/well in minimal essential medium (MEM) with 10% FBS. After 1 hour incubation cells were fixed, stained with methylene blue and quantified as described (Oliver et al., [1989]). Cell spreading was examined on cells plated on 100 mm polystyrene petri dishes coated with 2.5 ml of a 20 μg/ml solution of Cyr61, Fisp12 or fibronectin. 10^7 cells were plated on each dish and cell spreading was analyzed 90 minutes after plating by microscopy at 100× magnification.

[2] = Heparin binding assay (salt elution from heparin-Sepharose/agarose); details: for NaCl concentration of elution from heparin-Sepharose/agarose: increasing salt concentrations
[3] = test system: platelets; test: Platelet adhesion assay; format: cell-based, human; details: for adhesion of unactivated platelets: PGl2 100 nM, coating 25 μg/ml; for adhesion of activated platelets: thrombin, U46619 or ADP
Experimental: Microtiter wells were coated with purified recombinant Fisp12/mCTGF or Cyr61, and the adhesion of isolated platelets to these proteins was detected with ^125I-mAb15, an anti-β3 monoclonal antibody (Frelinger et al., J. Biol. Chem 265:6346-6352 [1990]). Platelets were obtained from venous blood drawn from healthy donors and collected into acid-citrate-dextrose (ACD). Washed platelets were prepared by diffenential centrifugation as described (Kinlough-Rathbone et al. Thromb. Haemostas 2:291-308 [1997]), and finally resuspended in HEPES-Tyrode's buffer (5 mM HEPES, pH 7.35, 1 mM MgCl2, 1 mM CaCl2, 135 mM NaCl, 2.7 mM KCl, 11.9 mM NaHCO3, 1 mg/ml dextrose and 3.5 mg/ml BSA). The platelet concentration was adjusted to […].
Microtiter wells (Immulon 2 removawell strips, Dynex Technologies, Inc.) were coated with Cyr61, Fisp12/mCTGF, or fibrinogen (25 μg/ml, 50 μl/well) incubated overnight at 22° C., and then blocked with 3% BSA at 37° C. for 2 hours. Washed platelets were added to the wells (100 μl/well) in the presence and absence of platelet agonists and incubated at 37° C. for 30 minutes. The wells were washed with HEPES-Tyrode's buffer and adherent platelets were detected with ^125I-mAb15, an anti-β3 monoclonal antibody. Exposure to the labeled antibody ([…], 50 μl/well) proceeded for 1 hour at 22° C. After extensive washing with HEPES-Tyrode's buffer, bound radioactivity was determined by γ-counting. In inhibition studies, washed platelets were pre-incubated with blocking peptides or antibodies at 37° C. for 15 minutes prior to addition to microtiter wells.
The anti-β3 antibody was radioiodinated with carrier-free Na^125I (Amersham Corp.) using the IODO-BEADS iodination reagent (Pierce) to a specific activity of approximately 2 μCi/μg. […] As controls, BSA- and fibrinogen-coated (KabiVitrum Inc.) wells were also used. Initially, the adhesion of unactivated versus activated platelets to immobilized Fisp12/mCTGF and Cyr61 was compared. To ensure that plateltes were not activated during the washing procedures, PGl2 (100 nM), which inhibits activation by raising platelet cAMP levels, was added to the platelet suspensions. […]

Row | Molecule | cell attachment to coated dishes [1] | attachment of NIH 3T3 cells to murine Cyr61-coated surfaces ([1]; method of b177) | NaCl concentration of elution from heparin-Sepharose/agarose [2] | adhesion of unactivated platelets [3] | adhesion of activated platelets [3] | cell spreading ([1]; dishes coated with 20 μg/ml, 90 minutes) | peak elution from heparin agarose ([2]; metabolically labeled cell lysates) [M NaCl]
1 | B1 | promoted the attachment | promoted the attachment of NIH 3T3 cells, though less effectively than fibronectin | 0.8-1.0 M NaCl | failed to adhere | dramatic increase in platelte adhesion | – | –
2 | B2 | promoted the attachment | – | 0.2 to 0.6 M NaCl | failed to adhere | dramatic increase in platelte adhesion | promotes cell spreading | 0.4
